According to the nanobody polyreactivity screen of Harvey et al. (2022):

Assay: yeast display, Sf9 membrane polyspecificity reagent, FACS + sequencing; frameworks hold sequencing errors
Method in brief: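 Genes from sorted yeast were amplified by colony PCR, read by MiSeq 2 × 250 sequencing and filtered on CDR length. These cells carried a synthetic nanobody library in Saccharomyces cerevisiae BJ5465 and were sorted by FACS into low and high (top ~1%) gates on anti-HA and streptavidin fluorescence. Polyreactivity is labelled according to the gate of origin.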

Sequence | polyreactivity (PSR sort gate)
QVQLVESGGGLVQAGGSLRLSCAASGRTFGPYTMGWYRQAPGKEREFVAAINSSGSRTYYADSVKGRFTISRDNAKNTVYLKINSLKPEDTGVYYCAAEAKWYYSWSYPYEGDYWGQGTQVTVSS | low polyreactivity
QVQLVESGGGLVPAGGSLRLSSAASGRIFVRNAMGWYRQAPGKERELVAAITRTGASTYYADSVKGRFTISRDNEKNTVYLQMNSLKPEDTAVYFFAAVWGWPYWVYRYDYWGQGTQVTVSS | high polyreactivity
QVQLVESGGGLVQAGGSLRLSCAASGSTFQINAMGWYRQAPGKEREFVAAITVSSGSTYYADSVKGRFTISRDNAKNTVYLQMNSLKPEDTAVYYCAADYWGQGTQVTVSS | low polyreactivity
QVQLVESGGGLVQAGGSLRLSCAASGRTFNAYAMGWYRQAPGKERELVAAISSGGSTYYADSVKGRFTISRDNAKYTVYLQMNSLKPEDTAVYYCNKVYGWRQFDYWGQGTQVTVSS | high polyreactivity
QVQLVESGGGLVQAGGSLRLSCAASGRIFNSYAMGWYIQAPGKERELVAAISSGGSTYYADSVKGRFTISRDNAKNTVYLQMNSLKPEDTAVYYCAARIWTGRGRKLGYGYDYWGQGTQVTVSS | low polyreactivity
QVQLVESGGGLVQAGGSLRLSCAASGFIFYYYDMGWYRQAPGKERELVAAISTGGSTYYADSVKGRFTISRDNAKNTVYLQMNSLKPEDTAVYYCAADSYWSPYDYWGQGTQVTVSS | high polyreactivity
QVQLVESGGGLVQAGGSLRLSCAASGNTFISYAMGWYRQAPGKERELVAAITWSGGSTYYADSVKGRFTISRDNAKNTVYLQMNSLKPEDTAVYYCAKFTHNYYYWGQGTQVTVSS | high polyreactivity
QVRLVESGGGLVQAGGSLRLSCAASGRIFQYYAMGWYRQAPGKERELVASITSGGGSTYYADSVKGRFTISRDNAKNTVYLQMNSLKPEDTAVYYCNARWYGLSTRYDYWGQGTQVTVSS | low polyreactivity
KVQLVESGGGLVQAGGSLRFSCAASGFIFRNYAMGWYRQAPGKERELVAAITARGTRTYYSDSVKGRFTISRDNAKNTVYLQMNSLKPEDTAVYYCAAVVLPSRQYDYWGQGTQVTVSS | high polyreactivity
QVQLVESGGGLVQAGGRLRLSCAASGRTFNYYAMGWYRQAPGKERELVATISYNGASTYYADSVKGRFTISRDNAKNTVYLQMNSLKPEDTAVYYCAAGYLWRGRLGNWGQGTQVTVSS | high polyreactivity
QVQLVESGGGLVQAGGSLRLSCAASGFIFLIYAMGWYRQAPGKERELVATIRYSGGRTYYADSVKGRFTISRDNAKNTVYLQMNSLKPEDTAVYYCAARSVWFSGQGRMNYWGQGTQVTVSS | high polyreactivity
QVQLVESGGGLVQAGGSLRLSCASSGSNTFINAMGWYRQAPGKERELVAAISGSGGSTYYADSVKGRFTISRDNAKNTVYLQMNFLKPEDTAVYYAARTGQYKTYGEYDYWGQGTQVTVSS | low polyreactivity
QVQLVESGGGLVQAGGSLRLSCAASGSIYINARGWYRQAPGKERELVAAISSGGSTNYADSVKGRFTISRDNAKNTVYLQMNSLKPEDTAVFYCATRRYRGPWYRNAYDYWGQGTQVTVSS | low polyreactivity
QVQLVESGGGLVQAGGSLRLSCAASGSIFYTNAMGWYRQAPGKERELVAVITASGGSTYYADSVKGRFTISRDNAKNTVYLQMNSLKPEDTSVYYCAADPVFNYDYWGQGTQVTVSS | low polyreactivity
QVQLVESGGGLVQAGGSLRLSCAASGRIFVVNAMGWYRQAPGKERELVAAISRSGGSTYYADSVKGRFTISRDNAKNTVYLQMNSLKPEETAVYFCAAVSWIYSFSAMSIYDYWGQGTQVTVSS | high polyreactivity
QVQLVESGGGLVQAGGSLRLSCAASGSTFDRYAMGWYRQAPGKEREFVAAITWGGGSTYYADSVKGRFTISRDNAKNTVYLQMNSLKPEDTAVYYCATRYGATFGYWGQGTQVTVSS | low polyreactivity
QVQLVESGGGLVQAGGSLRLSCAASGSIFYYNTMGWYRQAPGKAREFVADISVNGGSTYYADSVKGRFTISRDNAKNTVYLQMNSLKPEDSAVYYCAARRYQRPHGLYGYWGQGTQVTVSS | low polyreactivity
QVQLVESGGGLVQAGGSLRLICAASGFIFAWYAMGWYRQAPGKERELVAAITSGGRTYYADSVKGRFTISRDNAKNTVYLQMNSMKPEDTAVYYCATDAVDSHRPYKYGPQSGSWGQGTQVTVSS | high polyreactivity
QVQLVESGGGLVQAGGSLRLSCAASGSTFGYNAMGWYRQAPGKERELVADITWRGGRTYYADSVKGRFTISRDNAKNTVYLQMNSLKPEDTAVYYCAATSRGSGQRPGEAIIDYYYWGLGTQVTVSS | high polyreactivity
QVQLVESGGALVQAGGSLRLSCAASGRTFGINAMGWYRQAPGKERELVAAIRTGGSTYYADSVKGRFTISRDNAKNTVYLQMNSLKPADTAVYYCAAKAYRRYTIPPYGYWGQGTQVTVSS | high polyreactivity
QVQLVESGGGLVQAGGSLRLSCAASGFTFNTNAMGWYRQAPGKETELVAAITWTGGRTYYADSVKGRFTISRDNAKNTVHLQMNSLKPEDTAVYYCAAESFGYSIDITDHEYWGQGTQVTVSS | high polyreactivity
QVQIVESGGGLVQAGGSLRLSWASSGRIFYSNAMGRYRQAPGKERELVAAISYSGDSTYYADSVQGRFTISRDNAKNTGYFQMNSLKPEVTAVYYCAAETYVGEDYWGQGTQETVSS | high polyreactivity

Sequence | polyreactivity (PSR sort gate)
QVQLVESGGGLVQEGGSLRLICAASGLIFRTYTMGWYRQAPGKERELVATITRRGGTTYYADSVKGRFTISRDNAKNTVYLQMNSLKPEDTAVYYCAKSPYYTWKYDYWGQGTQVTVSS | high polyreactivity
QVQLVESGGGLVQAGGSLRLSCAASGRTFSYNTMGWYRQAPGKERELVASISGSGGRTYYADSVKGRFTISRDNAKNTVYLQMNSLKPEDTAVYYCAARRYSRDYDYWGQGTQVTVSS | high polyreactivity
QVQLVESGGGLVQAGGSLRLSCAASGSTFSYYDMGWYRQAPGKERELVAAISWNGGTTYYADSVKGRFTISRDNAKNTVYLQMNSLKPEDTAVYYCAATWDFYWAPDDSWGQGTQVTVSS | low polyreactivity
QVQLVESGGRIVQAGGSLRLSCAASGSILNNYAMGWYRQAPGKERELVAAISSSGGTNYADSVKGRFTISRDNEKNTVFLQMNSLKPEDTAVYYCNADVLDGGYDYWGQGTQVTVSS | low polyreactivity
QVQLVESRGALVQAGGSLRLSCAASGPIFDSYAMGWYRQATGKERELVATISRDSASTYYADSVKGRLTISRDNAKNTVYLQMNSLNPADTAVYYCSAGGSSSWAYNYWGHGTQVTVSS | low polyreactivity
QVQLVESGGGLVQAGGSLRLSCAASGRTFARYAMGWYRQAPGKERELVAAISWSGGSTYYADSVKGRFTISRDNAKNTVYLQMNSLKPEDTAVYYCAAGYGARSAIFDVYGTNEGDYWGQGTQVTVSS | high polyreactivity
QVQLVESGGGLVQAGGSLRLSCAASGRTFWRYAMGWYRQAPGKERELVARISWRGGSTNYADSVKGRFTISRDNAKITVYVQMNSLKAEDTAVYYCAADNSRYFLTGYDYWGQGTQVTVSS | low polyreactivity
QVQLVESGGGLVQAGGSLRLSCAASGFIFGVYDMGRYRQAPVKERDLVAAISIDDITNYADSVKGRFTISRDNAKNTVYLHLNSLKPEVTAVYYCAADGRTWWSNLEGEYWGQGTQVTVSS | low polyreactivity
QVQLVESGGGLVQAGGSLRLSCAASGSTFYFYAMGWYRQAPGKERELVATITTRGGSTYYADSVKGRFTISRDHAKNTLDLQMNILKPEDTAVYYCAREAWYKSYSRIKFGYWGQGTQVTVSS | high polyreactivity
QVHLVESGGGLVQAGGSLRLSCAASGSISVWYVIVWYRQAPGKERELVAAITRSGGSTFYADSVKGRFTISRDNAKNTVYLQMNSLKPEDTAVYYCAASFRDDFPQRLDYWGQGTQVTVSS | low polyreactivity
QVQLVESGGGLVQAGGSLRLSCAASGSIFYYNAKGWYTQAPGKERELVAVISYRSGRTSDADSVKGRFTISRDNAKNTVYLQMNSLKPEDTAVYYCATRDWWRYRHTGVIKFDYWGQGTQVSVSS | high polyreactivity
QVQLVESGGCLVQAGGRLRLSCAPSGFTFRKYAMGWYRQAPGKERQLVAAITANGGRTYNADSVKGRFTISRDNAKYTDYLKMNSLKPEDTSVYYCYARPSRGFRPRSAYGYWGQGTQVTVSS | high polyreactivity
QVQLVESGGGLVQAGGSLRLSCAASGSTFGFNAMGWYRQAPGKERELLPLFWSGGSTYYADSVKGRFTISRDNAKNTVYLQMNSLKPEDTAVYYCNKDSPPITRYDYWGQGTQVTVSS | low polyreactivity
QVKLLDSGGGLVQAGGSLRLSCAASGRNFYYYAMGWYRQAPGNERELVAAISSCGSTYADSVKGRFTISRDNAKTTVYLQMNSLKPEDTAVYYCAAYLSRLGPSGYYYWGQGTQVTVSS | high polyreactivity
QVQLVESGGGLVQAGGSLRLSCAASGSTFTPYAMGWYRQAPGKERELVAAINGGGTRTYYADSVKGRFTISRDNAKNTVYLQMNSLKPEDTAVYYCAARTSTSRSYPYNYWGQGTQVTVSS | high polyreactivity
QGQLVESVGGLVQAGGSLRLSCAASGSIFGWYVMGWYRQAPGQERELVAAISSVGSTYYADSVKGRFTISLDNAKNTVYLQMNSLKAEDTAVYYCAKLRYPYLFWDDSEYWGQGTQVTVSS | low polyreactivity
QVQLVESGGGLVQAGGSLRLSCAASGFIFSWNDLGWYRQATGKERELVAAITSGTGSTYYADSVKGRFTISRDNAKNTVYLQMNSLKPEDTAVYYCAAGTNYGKLRIRFDYWGQGTQVTVSS | low polyreactivity
QVQIVESGGGLVQAGGSLRLSCAASGRTFWGNAMGWYRQAPGKERELVASISSRGSSTYYADSVKGRFTISRDNAKNTVYLQMNSLKPEDTAVYYCAARTHYFPWPWYVWDYYSDGYWGQGTQVTVSS | low polyreactivity
QVQLVESGGGLVQAGGSLRLSCAASGSTFGYYAMGWYRQAPGKERELVAVIRRGGSTNYADSVKGRFTISRDNAKNTVYLQMNSLKPEDTAVYYCAKSQRGTVYSYYYWGQGTQVTVSS | high polyreactivity
QVQLVESGGGLVQAGGSLLFSCAASGHIFRTYAMGWYRQAPGKERELVAAINIGGTTDYADSVKGRFTISRDNAKNTVYLQMNSLKPEDTAVYYCNAYNRFWEYVYWGQGTQVTVSS | low polyreactivity
QVQLVESGGGLVQAGGSLRLSCAASGSTFTRYAMGWYRQAPGKERELVAAISSSAGRTYYADSVKGRFTISRDYAKNTVYLQMKSLKPEDTAVYYCAATRVYAGAQYDYWGQGTKVTVSS | high polyreactivity
